In paper PMC4409726, “Characterization of chromosomal and megaplasmid partitioning loci in Thermus thermophilus HB27”:

Tests used:
ParBc = biological target: T1, ParBc (Thermus thermophilus HB27, UniProt Q72H91 1-269); test: EMSA; poly(dI-dC); WT competitor competes much better than mutant; 50 mM KCl, 10 mM Tris-HCl pH 7.0, 1 mM EDTA, 1 mM DTT, 4% glycerol, 0.02 ug/ul poly(dI-dC), 25 ul, 15 pmol FAM probe, 0 or 200 pmol ParB (competition), 25 C 30; settings: protein: recombinant; tags: His tag implied (pET21a, Ni-IDA); chain copies: 2; blunt
T1 sequence: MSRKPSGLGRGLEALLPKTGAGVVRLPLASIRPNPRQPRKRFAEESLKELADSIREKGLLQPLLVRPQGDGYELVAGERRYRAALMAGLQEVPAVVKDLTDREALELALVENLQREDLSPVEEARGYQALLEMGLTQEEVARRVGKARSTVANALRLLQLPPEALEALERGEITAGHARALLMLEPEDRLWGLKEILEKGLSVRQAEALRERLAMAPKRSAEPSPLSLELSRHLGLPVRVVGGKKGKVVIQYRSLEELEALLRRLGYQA

ParBm = biological target: T2, ParBm (Thermus thermophilus HB27, UniProt Q746H2 1-297); test: as above; settings: protein: recombinant; tags: His tag implied (pET21a, Ni-IDA); chain copies: 2; blunt
T2 sequence: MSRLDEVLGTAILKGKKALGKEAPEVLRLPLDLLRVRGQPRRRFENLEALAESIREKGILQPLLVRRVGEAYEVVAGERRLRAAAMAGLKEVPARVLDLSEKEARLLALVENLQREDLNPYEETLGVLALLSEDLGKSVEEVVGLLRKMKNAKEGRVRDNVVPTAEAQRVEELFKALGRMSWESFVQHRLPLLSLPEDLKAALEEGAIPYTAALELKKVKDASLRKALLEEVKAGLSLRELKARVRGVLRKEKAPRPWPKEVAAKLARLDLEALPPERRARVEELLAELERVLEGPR

B1: WT parSc 25-bp probe (dsDNA)
DNA 1: TGTTTCCCGTGAAACATCAGGCGCC
DNA 2: GGCGCCTGATGTTTCACGGGAAACA
Does B1 bind (ParBc)?
Result: binds

B2: WT parSm 18-bp probe (dsDNA)
DNA 1: GCAAGGACGCGTCCTTCA
DNA 2: TGAAGGACGCGTCCTTGC
Does B2 bind (ParBm)?
Result: binds
